US20020009436A1, “Methods and compositions for inhibiting adhesion by microorganisms” (priority 1999, published 2002)

Columns and labels:
[1] = system: S. sobrinus glucosyltransferase; assay: Purified S. sobrinus glucosyltransferase treated with asparaginase; type: biochemical
Method: Glucosyltransferase activity was detected as described in the art, with some modifications described hereinbelow. Protein samples were mixed with electrophoresis sample buffer and incubated for 1 to 4 h at 37° C. before the gel was run. Nonfixed gels were incubated in 50 mM sodium acetate (pH 5.5) containing 1% vol/vol Triton X-100, 2 % (wt/vol) sucrose, and 0.07% (wt/vol) NaN3 at 37° C. for 24 h. Gels were also incubated in the same buffer with glucan T2000 (2 to 4 mg/ml) or fluorescein isothiocyanate-conjugated glucan T-10 (2 mg/ml) to detect both glucosyltransferases and glucan binding proteins (GBPs). After incubation, the gels were fixed for 30 min in 75% ethanol and rocked on a shaker for 30 min with 0.7% periodic acid in 5% acetic acid. The gels were then shaken for 1 h in 0.2% (wt/vol) sodium metabisulfite in 5% acetic acid. After two additional treatments in sodium metabisulfate and acetic acid, the gels were placed in Schiff's reagent for 0.5 to 1 h. Finally the gels were washed extensively in 45% methanol-45% acetic acid-10% H2O for destaining. In some experiments, purified protein was treated with 100 μg/ml polyphenol oxidase for 1 h, or with asparaginase, before loading on the gel.

[2] = system: Bacillus cereus; assay: Growth inhibition of Bacillus cereus; type: cell-based
[3] = system: proteolytic activity of the P. gingivalis; assay: Hydrolysis of collagen substrate (azocoll) by P. gingivalis; type: cell-based
From the text: The asparaginase and polyphenol oxidase thus not only affect the adhesion and/or hemagglutination, but also the proteolytic activity of the P. gingivalis.

[4] = system: E. coli possessing type 1 fimbriae; assay: Adhesion of E. coli to a mannose receptor; type: cell-based; conditions: E. coli treated with asparaginase versus untreated cells
Method: Materials and methods were generally as described in the Examples above, but modified for observing adhesion by E. coli to a mannose receptor. […] The E. coli were then incubated with a source of mannose receptor.

[5] = system: P-fimbriated E. coli; assay: Flow cytometric adhesion of P-fimbriated E. coli to UECs; type: cell-based
From the text: (§1) Methods for handling polyphenol oxidase and asparaginase and for observing adhesion by microorganisms were generally as described in the previous Examples with variations to adapt these methods to epithelial cells.
The bacteria were labeled intracellularly with the fluorescein dye CFDA-SE. Median fluorescence intensity of the UECs was taken as a measure of the number of bacteria attached to them. In the Figures below, median fluorescence is converted to % adhesion using control conditions (UEC+untreated bacteria) as 100%.

[6] = system: S. pyogenes; assay: Adhesion of S. pyogenes to buccal epithelial cells (coaggregation slides); type: cell-based, Streptococcus pyogenes
Method: This experiment began with growing and harvesting of five strains of S. pyogenes, including M14 Lowe, YL3, M24 and T2/MR. The strains were grown in BHI broth in a 37 degree incubator overnight. The cultures were grown under static conditions. The cells were then harvested by washing twice with phosphate buffer (pH=7). Treatment of the cells with polyphenol oxidase and asparaginase began with finding the optical density of the stock solution of harvested cells. This was done using a spectrophotometer. Each strain was treated with two concentrations of polyphenol oxidase (100 μg/OD and 300 μg/OD) and one concentration of asparaginase (300 μg/OD). The treatment of the cells with polyphenol oxidase took place in the 37 degree incubator for 1.5 hours. The cells were then washed twice with phosphate buffer (pH 7). At this time, a coaggregation was made and allowed to set at static conditions for two hours. Slides were then made of each coaggregation.
The treatment of the cells with asparaginase also took place in the 37 degree incubator for three hours. Before treatment, the cells were washed twice with phosphate buffer of pH=8. After treatment, they were washed twice with phosphate buffer of pH=7. Coaggregations and slides were then made as for polyphenol oxidase.
The buccal cells were harvested from the inner cheeks using cotton swabs. […]

[7] = system: S. pneumoniae; assay: Adhesion of pneumococci to buccal cells; type: cell-based; conditions: strain 6303
Method: as §1, with “these bacteria and to buccal” for “epithelial”, “cells. In particular, adhesion was measured in a manner similar to that just described for S. pyogenes.” for “cells.”

[8] = system: S. aureus; assay: Collagen binding assay, S. aureus; type: cell-based
Method: (§2) Wells were filled with 1 mg/ml soluble collagen overnight at 4° C. Control wells were coated with 1% BSA. The protein solutions were removed and permitted to stand at 37° C. for 1 h. A solution of 2% BSA was added to the wells to block unoccupied sites and prevent non-specific binding of bacteria. After 30 min, BSA was removed and the wells were washed once with distilled water. Finally, the bacterial suspensions (100 μl, OD 1.4) were added to the plates and incubated at 37° C. for 2 h. Unbound bacteria were removed by washing the wells three times with PBS containing 0.01% Tween 20. The wells were dried at 37° C. for 30 min and stained with crystal violet for 15 min. Wells were rinsed with distilled water and dried at 37° C. for 2 h. After adding 100 μl of 95% (v/v) ethanol to each well the plates were then shaken to release the stain and a reading of 550 nm was carried out.

[9] = system: S. epidermidis (clinical isolate); assay: Collagen binding assay, S. epidermidis; type: cell-based; conditions: untreated 0.09
Method: as §2

[10] = system: S. sanguis; assay: Adhesion of S. sanguis to saliva-coated hydroxylapatite beads; type: cell-based, Streptococcus sanguis; conditions: polyphenol oxidase 100 μg/ml or 150 units; asparaginase 20 U/ml; 1 hr at 37° C.
Method: S. sanguis was grown and handled according to procedures known to those of skill in the art. Hydroxylapatite beads were coated with saliva and washed. Adhesion was measured using [^3H]thymidine labeled streptococci. Various cell densities were run but using a single 40 mg weight of beads.
The “cooperative” adhesion (loss of upward slope on the Scatchard plot) was absent following both enzyme treatments. Incubation of cells with enzymes was 1 hr at 37° C.

[11] = system: S. sobrinus 6715; assay: Disc-diffusion growth assay, S. sobrinus; conditions: 500 μg/ml and 1.0 mg/ml, 18 h
Method: Standard disc-diffusion assays were performed with 500 μg/ml and 1.0 mg/ml of polyphenol oxidase. Duplicate series of ten-fold dilutions (to 10^−8) of late exponential phase cultures of S. sobrinus were made in PBS. Eighty μl of each concentration of polyphenol oxidase was pipetted onto 13 mm sterile filter paper discs. The discs were applied to the center of agar plates previously inoculated with lawns of S. sobrinus. Plates were incubated for 18 h and examined visually for any effect of polyphenol oxidase on growth of the bacteria.
Duplicate series of ten-fold dilutions (to 10^−8) of late exponential phase cultures of S. sobrinus were made in PBS. Eighty , μl of each concentration of asparaginase was pipetted onto 13 mm sterile filter paper discs. The discs were applied to the center of agar plates previously inoculated with lawns of S. sobrinus. Plates were incubated for 18 h and examined visually for any effect of asparaginase on growth of the bacteria.

B1: asparaginase: enzyme that catalyzes hydrolysis of the side chain amide group of asparagine to a carboxyl group; E. coli asparaginase (protein, UniProt P00805 23-348, looked up)
L-asparaginase 2: LPNITILATGGTIAGGGDSATKSNYTVGKVGVENLVNAVPQLKDIANVKGEQVVNIGSQDMNDNVWLTLAKKINTDCDKTDGFVITHGTDTMEETAYFLDLTVKCDKPVVMVGAMRPSTSMSADGPFNLYNAVVTAADKASANRGVLVVMNDTVLDGRDVTKTNTTDVATFKSVNYGPLGYIHNGKIDYQRTPARKHTSDTPFDVSKLNELPKVGIVYNYANASDLPAKALVDAGYDGIVSAGVGNGNLYKSVFDTLATAAKTGTAVVRSSRVPTGATTQDAEVDDAKYGFVASGTLNPQKARVLLQLALTQTKDPQQIQQIFNQY
binding by the glucosyltransferase to high molecular weight dextrans [1]: reduced binding | activity gel (hydrolysis of sucrose following renaturation of an SDS-PAGE gel) ([1]; not shown): loss of activity | glucan binding, enhanced chemiluminescence gel ([1]; not shown): loss of glucan binding | inhibition of growth of Bacillus cereus [2]: did not significantly inhibit growth | hydrolysis of the collagen substrate (azocoll) [3]: reduction of the hydrolysis | binding to the mannose receptor [4]: reduced binding | decrease in adhesion to UECs ([5]; asparaginase 2.5 units/ml): 45% | decrease in adhesion to UECs ([5]; asparaginase 5 units/ml): 55% | decrease in adhesion to UECs ([5]; asparaginase 25 units/ml): 85% | adhesion to UECs ([5]; bacteria first incubated with globoside, then polyphenol oxidase 282 units/ml or asparaginase 5 units/ml): nearly the same as that of untreated bacteria | binding of bacteria to buccal cells ([6]; asparaginase 300 μg/OD, three hours): reduced binding | reduction in adhesion compared with polyphenol oxidase ([6]; equivalent amount): greater reduction in adhesion than an equivalent amount of polyphenol oxidase | adhesion of S. pneumoniae to buccal cells [7]: able to reduce adhesion | Absorbance (collagen) ([8]; S. aureus Cowan, untreated 0.47): 0.30 | Absorbance (collagen) ([8]; S. aureus Wood, untreated 0.40): 0.26 | Absorbance (collagen) [9]: 0.05 | adhesion to hydroxylapatite [10]: reduced adhesion | inhibition of growth of S. sobrinus [11]: did not significantly inhibit growth
